Test results from patent publication US20180086810A1, “T CELL RECEPTOR FUSIONS AND CONJUGATES AND METHODS OF USE THEREOF” (ALTOR BIOSCIENCE CORPORATION, priority 2000, published 2018).

Tests used:
[1] = target: 264 peptide/HLA-A2 complex on T2 cells (human); test: cell-based or functional assay
[2] = target: 149 peptide/HLA-A2 complex on T2 cells (human); test: cell-based or functional assay

- conjugation between CTLL-2 cells and peptide-loaded T2 cells (flow cytometry, percent conjugates) [1]: 3.25%
- conjugation between CTLL-2 cells and peptide-loaded T2 cells (flow cytometry, percent conjugates) [2]: 0.88%
Substance: 264 scTCR-IL-2 fusion protein (from UniProt P60568 21-153)
